{"source": "the nanobody polyreactivity screen of Harvey et al. (2022)", "data": [{"test": "yeast display, Sf9 membrane polyspecificity reagent, FACS + sequencing; frameworks hold sequencing errors", "procedure,_shortened": "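Genes from sorted yeast were amplified by colony PCR, read by MiSeq 2 × 250 sequencing and filtered on CDR length. These cells carried a synthetic nanobody library in Saccharomyces cerevisiae BJ5465 and were sorted by FACS into low and high (top ~1%) gates on anti-HA and streptavidin fluorescence. Polyreactivity is labelled according to the gate of origin.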", "values": [{"sequence": "QVQLVESGGGLVQAGGSLRLSCAASGRIFIYNAMGWYRQAPGKERELVAAISSGGSTYYADSVKGRFTISRDNANNTVYLQMNSLKAEDTAVYYCAAPRGHGKYYSWGQGTQVTVSS", "polyreactivity (PSR sort gate)": "high polyreactivity"}, {"sequence": "QVQLVESGGGLVQAGGSLRLSCAASGRIFIYYAMGWYRQAPGKERELVAAISWSGGRTYYADSVKGRFTISRDNAKNTVYLQMNSLKPEDTAVDYCAGYSFANHGFDYWGQGTQVIVSS", "polyreactivity (PSR sort gate)": "high polyreactivity"}, {"sequence": "QVQLVESGGGLVQAGGSLRLSCAASGRIFIYYTMGWYRQAPGKERELVASITWSGGRTYYADSVKGRFTISRDNAKNTVYLQMNSLKPEDTAVYYCNAGYSIGLVAYGYWGQGTQVTLSS", "polyreactivity (PSR sort gate)": "low polyreactivity"}, {"sequence": "QVQLVESGGGLVQAGGSLRLSCAASGRIFKENAMGWYRQAPGKERELVAAISSGASTSYADSVKGRFTISRDNAKNTVYLQMNSLKPEDTAVYYCNRGGDLYYPGWLFDYWGQGSQVTVSS", "polyreactivity (PSR sort gate)": "low polyreactivity"}, {"sequence": "QVQLVESGGGLVQAGGSLRLSCAASGRIFKFNAMGWYRQAPGKERELVAATWSGGRTSYADSVKGRFTISRDNAKNTVYLQMNSLKPEDTAVYYCNAADWIDVQYDYWGQGNQVTVSS", "polyreactivity (PSR sort gate)": "low polyreactivity"}, {"sequence": "QVQLVESGGGLVQAGGSLRLSCAASGRIFKGNAMGWYRQAPGKEREFVAAISQRGGSTYYADSVKGRFTISRDNAKNTVYLQMNSLKPEDTAVYFCAAAAQRPEGYYWGQGTQVTVSS", "polyreactivity (PSR sort gate)": "high polyreactivity"}, {"sequence": "QVQLVESGGGLVQAGGSLRLSCAASGRIFKGNAMGWYRQAPGKEREFVADISQRGGSTYYADSVKGRFTISRDNAKNTVYLQMNSLKPEDTAVYYCAAVRKSVGVKYDYWGQGTQVTVSS", "polyreactivity (PSR sort gate)": "high polyreactivity"}, {"sequence": "QVQLVESGGGLVQAGGSLRLSCAASGRIFKGYAMGWYRLAPGKERELVAAITSGGNTNYADSVKGRFTISRDNAKNTVYLQMNSLKPEDTAVYYCAARPRFVYSYPYYYWGQGTQVTVSS", "polyreactivity (PSR sort gate)": "high polyreactivity"}, {"sequence": "QVQLVESGGGLVQAGGSLRLSCAASGRIFKHYAMGWYRQAPGKERELVAAITNGGRTNYADSVKGRFTISRDNAKNTVYLQMNSLKPEDTAVYYCARDRKIAYLSEGFDYWGQGTQVTVSS", "polyreactivity (PSR sort gate)": "low polyreactivity"}, {"sequence": "QVQLVESGGGLVQAGGSLRLSCAASGRIFKNYAMGWYRQAPGKERELVAAISRSGGRTYYADSVKGRFTISRDNAKNTVYLQMNSLKPEDTAVYYCAADVDYRYSKIYKWTYDYWGQGTQVTVSS", "polyreactivity (PSR sort gate)": "high polyreactivity"}, {"sequence": "QVQLVESGGGLVQAGGSLRLSCAASGRIFKNYAMGWYRQAPGKERELVAAITWSGGRTYYADSVKGRFTISRDNAKNTVYLQMNSLKPEDTAVYYCATAARRGPNSIEPFGYGSWGQGTQVTVSS", "polyreactivity (PSR sort gate)": "high polyreactivity"}, {"sequence": "QVQLVESGGGLVQAGGSLRLSCAASGRIFKRNAMGGYRQAPGKDREVVADMSYGHSTYADSVKGRFTISRDNAKKTVYLQMNSLKPEDTAFYYCAKLYWIRTYDYWGQGTQVSVSS", "polyreactivity (PSR sort gate)": "low polyreactivity"}, {"sequence": "QVQLVESGGGLVQAGGSLRLSCAASGRIFKRNAMGWYRQAPGKERELVAAISYSGGSTYYADSVKGRFTISRDNAKNTVYLQMNSLKPEDTAVYYCAVDRYPTGITKYDYWGQGTQVTVSS", "polyreactivity (PSR sort gate)": "high polyreactivity"}, {"sequence": "QVQLVESGGGLVQAGGSLRLSCAASGRIFKRNTMGWYRQAPGKEWELVAAITRSGGSTHYADSVKGRFTFSRDNAKNTVYLHMNSLKPEDTAVYYCAVRAAAIDRLAQFDYWGQGSQVTVSS", "polyreactivity (PSR sort gate)": "low polyreactivity"}, {"sequence": "QVQLVESGGGLVQAGGSLRLSCAASGRIFKRYAMGWYRQAPGKERELVAAISRGGSTNYADSVKGRFTISRDNAKNTVYLQMNSLKPEDTAVYYCAVQSGYSGSSQPVRYDYWGQGTQVTVSS", "polyreactivity (PSR sort gate)": "high polyreactivity"}, {"sequence": "QVQLVESGGGLVQAGGSLRLSCAASGRIFKRYAMGWYRQAPGKERELVAAITSSGGRTYYADSVKGRFTISRDNAKNTVYLQMNSLKPEDTAVYYCNVDSANRDGYWGQGTQVTVSS", "polyreactivity (PSR sort gate)": "high polyreactivity"}]}]}
